# Test: soluble on expression in E. coli; label from the status in PepcDB or PDB records
row,Sequence,soluble on expression in E. coli
1,MTSAEMTSPNNNSEHQAIAKMRTMIEGFDDISHGGLPIGRSTLVSGTSGTGKTLFSIQFLYNGIIEFDEPGVFVTFEETPQDIIKNARSFGWDLAKLVDEGKLFILDASPDPEGQEVVGGFDLSALIERINYAIQKYRARRVSIDSVTSVFQQYDASSVVRRELFRLVARLKQIGATTVMTTERIEEYGPIARYGVEEFVSDNVVILRNVLEGERRRRTLEILKLRGTSHMKGEYPFTITDHGINIFPLGAMRLTQRSSNVRVSSGVVRLDEMCGGGFFKDSIILATGATGTGKTLLVSRFVENACANKERAILFAYEESRAQLLRNAYSWGMDFEEMERQNLLKIVCAYPESAGLEDHLQIIKSEINDFKPARIAIDSLSALARGVSNNAFRQFVIGVTGYAKQEEITGLFTNTSDQFMGAHSITDSHIATITDTIILLQYVEIRGEMSRAINVFKMRGSWHDKAIREFMISDKGPDIKDSFRNFERIISGSPTRITVDEKSELSRIVRGVQEKGPES,soluble
2,MTSALATGLATITADGTVLDAWFPAPELTAVDTTGTTVLDGDDIPEHLRLLVGEDADRGVRRQAITTTIADLDAAPIDAYDAYLRLHLLSHRLVKPHGQNLDGIFGLLTNVVWTNHGPCEVKNFDITRAKLQARGPVTVYLVDKFPRMVDYVLPSGVRIGDADRVRLGAHLAEGTTVMHEGFVNFNAGTLGNSMVEGRISAGVVVDDGSDVGGGASIMGTLSGGGKQVISLGKRCLLGANSGCGIPLGDDCVIEAGLYVTAGSKIIVRGAVAEATGLNDGDTTKALELAGANNILFRRNSISGAIEATAWKSQAVELNDALHAN,soluble
3,MTSDIKAILEQVVISPDVPIAEAIAQLDRAGTGSLVVCSADKKLYGLLTDGDVRRALLKAVDMGAPCGDIANRKPVITFVPLLPIEALRLMNHHDINHLPVLDAEGRVVDFLLRRDLVAEDELAARARRRLDSVVIPCSASIAEAIAQLDRAGTGALVLCSEGDRLHGLLTDGDIRRAVLRGISLDAPCQDVASRRPVTVEPSFSAAQALHLMNQHDINHLPVVDDTGRVVDFLLRRDLIADDQLNLSAVVMAGGYGKRLLPLTEQVPKPMLPVGDRPLLERTIDQLRRSGIREVNLTTHYLPDSIVEHFGDGDSFGVKLNYLKEDHPLGTAGGLKLMKKASDPFLVMNGDILTGVPFQEMFAYHRKNGAEITVGVRKYEVQVPFGVVECDDVRITGLKEKPSLTFFINAGIYLLEPSVCDLIPEGERFDMTDLIQKLLDEGRSVVSFPIMEYWLDVGRHEDYQKAQEDVRSGKIQLEHHHHHH,not soluble
4,MTSFNSFMRPLAAAILSALVTLAPVAPQAQEAVRGAVTNLPIPRFVSMKANEGNVRRGPSLTHRIDWVFKRRDMPLQITAEHGHWRKVQDRDGAGGWVHYALLSGVRTVLVEKDMMPLYARPDPASQVAAHFEMGVVARLGTCTQDWCRISAGGYRGWAPKENLWGVGTDEIRELEHHHHHH,not soluble
5,MTSRSNSGPGIQRRRGAIKHARVHEIRGHQFVATFFRQPHFCSLCSDFMWGLNKQGYQCQLCSAAVHKKCHEKVIMQCPGSAKNTKETMALKERFKVDIPHRFKTYNFKSPTFCDHCGSMLYGLFKQGLRCEVCNVACHHKCERLMSNLCGVNQKQLSEMYHEIKRGTHATASCPPNIANLHLNGETSKNNGSLPNKLKNLFKSHQYSVEEQKETDEYMDNIWGGGDGPVKKFALPHFNLLKVLGKGSFGKVMLVELKGKNEFYAMKCLKKDVILEDDDTECTYIERRVLILASQCPFLCQLFCSFQTNEYLFFVMEYLNGGDLMHHIQQIKKFDEARTRFYACEIVVALQFLHTNNIIYRDLKLDNVLLDCDGHIKLADFGMAKTEMNRENGMASTFCGTPDYISPEIIKGQLYNEAVDFWSFGVLMYEMLVGQSPFHGEGEDELFDSILNERPYFPKTISKEAAKCLSALFDRNPNTRLGMPECPDGPIRQHCFFRGVDWKRFENRQVPPPFKPNIKSNSDASNFDDDFTNEKAALTPVHDKNLLASIDPEAFLNFSYTNPHFSK,not soluble
6,MTSSPELARAVAATLARHVTDVVICPGSRNSPLSLELIARDDIRVHTRIDERSAAFLALGLARSSKRHVAVVTTSGTAVANCAPAMIEAAYSHTPLIMVSADRPERLHGTGANQTIEQRGIFNVVDTDHVVDITDLNSISFARNVIHINVALDVPLVDVLPEV,not soluble
7,MTSSPPSFMSYEDRIQEGDTVIVYVTYGQMVPTIVKRGQTLMMKYGALRHEFIIGKRWGQRLSATAGYVYILRPTSDLWTRALPRRTQILYTADCAQILSLLDAKPGSVICESGTGSGSLSHAIALTVAPTGHLYTHDIDETRTHKVLEEFKVHGLGSVTTAVVRNVCTSGFHVENAADGVFLDVPAPWEAIPFAAKSIFRARGGRLVSFSPCLEQVQRACLAMAAAGFVSIETIELVPEQKKIVSQHRQTLEEFEELGDAYPKERKRNVDGTIVEQSSSAIPRITIAIVYPYSQPTHTGYLTHATMLPVAE,not soluble
8,MTTASTSQVRQNYDQDSEAAINRQINLELYASYVYLSMSYYFDRDDVALKNFAKYFLHQSHEERCHAEKLMKLQNQRGGRIFLQDIQKPDRDDWESGLNAMEAALQLEKNVNQSLLELHKLATDKNDPHLSDFIETHYLNCQVCAIKCLGDHVTNLRKMGAPESGLAEYLFDKHTLGDSDNES,soluble
9,MTTATAGLAVELKQSTAQAHEKAEHSTFMSDLLKGRLGVAEFTRLQEQAWLFYTALEQAVDAVRASGFAESLLDPALNRAEVLARDLDKLNGSSEWRSRITASPAVIDYVNRLEEIRDNVDGPALVAHHYVRYLGNLSGGQVIARMMQRHYGVDPEALGFYHFEGIAKLKVYKDEYREKLNNLELSDEQREHLLKEATDAFVFNHQVFADLGKGL,soluble
10,MTTAVARLQPSASGAKTRPVFPFSAIVGQEDMKLALLLTAVDPGIGGVLVFGDRGTGKSTAVRALAALLPEIEAVEGCPVSSPNVEMIPDWATVLSTNVIRKPTPVVDLPLGVSEDRVVGALDIERAISKGEKAFEPGLLARANRGYLYIDECNLLEDHIVDLLLDVAQSGENVVERDGLSIRHPARFVLVGSGNPEEGDLRPQLLDRFGLSVEVLSPRDVETRVEVIRRRDTYDADPKAFLEEWRPKDMDIRNQILEARERLPKVEAPNTALYDCAALCIALGSDGLRGELTLLRSARALAALEGATAVGRDHLKRVATMALSHRLRRDPLDEAGSTARVARTVEETLP,soluble
11,MTTFPTLDPELAAALTMLPKVDFADLPNARATYDALIGAMLADLSFDGVSLRELSAPGLDGDPEVKIRFVTPDNTAGPVPVLLWIHGGGFAIGTAESSDPFCVEVARELGFAVANVEYRLAPETTFPGPVNDCYAALLYIHAHAEELGIDPSRIAVGGQSAGGGLAAGTVLKARDEGVVPVAFQFLEIPELDDRLETVSMTNFVDTPLWHRPNAILSWKYYLGESYSGPEDPDVSIYAAPSRATDLTGLPPTYLSTMELDPLRDEGIEYALRLLQAGVSVELHSFPGTFHGSALVATAAVSERGAAEALTAIRRGLRSLSPVS,soluble
12,MTTHTGGCQCGAVRFRATGDLQDSSICHCRMCQKAFGAYYAPLVSVRNVEFEWTRGEPKRFQSSSVVKRGFCPECGTPLTYEAPDGVAVAAGAFDDPAALPPTIQWGVERKIDFVDTLHTLPAVATEDDLTQVDYLTNLVSYQHPDHDTENWPPEKR,not soluble
13,MTTIVGVRAREVLDSRGFPTVEAEVELEGGARGRAMVPSGASTGTHEALELRDGGKRYLGKGVRRAVENVNERIAPELVGMDALDQEGVDRAMLELDGTPNKANLGANAVLAVSLAVARAAAEALGLPLYRYLGGVQGVTLPVPLMNVINGGKHADNRVDFQEFMLVPAGAGSFAEALRIGAEVFHTLKAVLKEKGYSTNVGDEGGFAPDLRSNEEAVELLLLAIERAGYTPGQEVSLALDPATSELYRDGKYHLEGEGKVLSSEEMVAFWEAWVEKYPIRSIEDGLAEDDWEGWRLLTERLGGKVQLVGDDLFVTNPERLRAGIERGVANAILVKVNQIGTLSETLEAIRLAQRSGYRAVISHRSGETEDSFIADLAVAVNAGQIKTGSLSRSDRLAKYNQLLRIEEELGRAARFLGYAAF,soluble
14,MTTMPQRESTIAVPDDRRKQLGAFLRARRESLDPQRLGLPRVGRRRTPGLRREEVAMLADVGVTWYTWLEQGREVNPSEAVLVGVANALQCSPLETRHLFVLAGLTPPEATQVTVCEGISPGTRRMLDSLMPQPASIQKPNFDIVAWNDSFCRLMGIDFATLPEEDRNCIYLYLTHETWRSRIENRDVLPTFVSYFRAAMAEHRGDPAWENKLARFFAASSEFEALWHQRYEVRGVENQIKHFNHPQLGRFSLQQMYWYSAPRNGSRLLVYLPMDEAGEQALAWLDQH,not soluble
15,MTTMTNSLISNSVSSVPESLFSSASIHRPVAINPAMLAQFSINLPVLPFESSASLGTSTTSSSRCSSTESSAAPGKIRRGRPQQEIADGQDAHSQKKRHRRLYARQYRAQMRQKVENVKSLHDEKEQLELEVKALRQAVSGLQQENAQKDFLISILQLNNQINHS,not soluble
16,MTTTDKQLLYVRTEMTIPGVGTSIHIAELEPTSTTHCTLHRILELDPSNTIRGAAHGNAVAGMAAAPERTVPHPNSYANFPDITATHLLQEEFEVLWAEAVAKFSELR,not soluble
17,MTTVMKFGGTSVGSGERIRHVAKIVTKRKKEDDDVVVVVSAMSEVTNALVEISQQALDVRDIAKVGDFIKFIREKHYKAIEEAIKSEEIKEEVKKIIDSRIEELEKVLIGVAYLGELTPKSRDYILSFGERLSSPILSGAIRDLGEKSIALEGGEAGIITDNNFGSARVKRLEVKERLLPLLKEGIIPVVTGFIGTTEEGYITTLGRGGSDYSAALIGYGLDADIIEIWTDVSGVYTTDPRLVPTARRIPKLSYIEAMELAYFGAKVLHPRTIEPAMEKGIPILVKNTFEPESEGTLITNDMEMSDSIVKAISTIKNVALINIFGAGMVGVSGTAARIFKALGEEEVNVILISQGSSETNISLVVSEEDVDKALKALKREFGDFGKKSFLNNNLIRDVSVDKDVCVISVVGAGMRGAKGIAGKIFTAVSESGANIKMIAQGSSEVNISFVIDEKDLLNCVRKLHEKFIEKTNS,soluble
18,MTTVTVTTEVPSSGKTEDGHVFCDSSSAHIIEETEYVRQMRTTLEKIRNHMFKEKEGCGNARHKLDAEGSGNIQNGSDSTTDPTCLDLLMENMRRKDQQLLEMNRENEVLQIKLEASREAGAAALRNVAQRLFDNYQTQAGDLEKKHEGRKHLLQVNNLEKEQALKGSAESLNLLSEKLEEKHGQIVGLENRVQRMENNKELKTRVAHWTETPRTLVSKAVSTSELKTEGASPYLMLIRLRK,not soluble
19,MTVDHRQWAREAIRIIEADFQRSADTHLIPLETPGLPGVELYFKDESSHPTGSLKHRLARSLFLYALCNGWLRPAAPVIEASSGSTAISEAYFARLLGLPFIAVMPASTSKEKIAQIAFYGGQSHLVEDPTQIYAESERLARESGGHFMDQFTYAERATDWRANNNIAESIFQQMRHEPYPTPTWLISSPGTGGTLATLGRYVRYRQHCTRVLCADAERSVFFDAYVSGDRGLTLDCGSRIEGIGRPRVEASFLPEVIDAMVKVPDAWSLAAMHYLARRLGRRVGGSSGTNLIGALVAARQMVAAGEKGSLVAILCDGGERYATTYYDPVWLARQGYALEPLVEALAACIERGVALPDGLLVAG,not soluble
20,MTVKIALLGFGTVASGVPFLLKENGGKINQSAHSDIKVAKVLVKDEDEKNRLLAAGNDFNFVTNVDDILSDQDITIVVELMGRIEPAKTFITRALEAGKHVVTANKDLLAVHGAELLEIAQANKVALYYEAAVAGGIPILRTLANSLASDKITRVLGVVNGTSNFMVTKMVEEGW,not soluble

# Reference: the DeepSol protein solubility set
